Test results taken from patent US20190185574A1 (COMMISSARIAT L NERGIE ATOMIQUE ET AUX NERGIES ALTERNATIVES, published 2019).
Substitutions are numbered along the chain they refer to.

T1: human endothelin receptor sub-type B (human, UniProt P24530 27-442)
T1 construct: no signal peptide limits are stated; also called ETB-R; ETBR
T1 sequence: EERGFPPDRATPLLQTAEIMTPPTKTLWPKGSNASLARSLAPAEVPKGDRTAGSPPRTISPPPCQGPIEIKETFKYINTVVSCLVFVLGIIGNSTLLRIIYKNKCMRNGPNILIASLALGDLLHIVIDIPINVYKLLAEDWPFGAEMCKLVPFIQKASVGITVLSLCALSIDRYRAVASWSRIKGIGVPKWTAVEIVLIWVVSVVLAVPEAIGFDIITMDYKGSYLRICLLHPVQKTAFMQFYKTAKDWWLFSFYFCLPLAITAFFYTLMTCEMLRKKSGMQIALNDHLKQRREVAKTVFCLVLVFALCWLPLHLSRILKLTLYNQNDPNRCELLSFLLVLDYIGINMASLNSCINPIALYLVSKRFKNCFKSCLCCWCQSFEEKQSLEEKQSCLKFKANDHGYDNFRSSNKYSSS

T2: peptide C5 of the ETB-R Pep-scan membrane (human)
T2 construct: The peptides are 12-mers offset by one residue, C11 is stated to be 71-82, and C5-C10 share 70-76
T2 peptide: SLAPAEVPKGDR

T3: peptide C9 of the ETB-R Pep-scan membrane (human)
T3 construct: Residues are inferred as for C5, from the one-residue offset and C11 = 71-82
T3 peptide: AEVPKGDRTAGS

T4: peptide C10 of the ETB-R Pep-scan membrane (human)
T4 construct: Residues are inferred as for C5, from the one-residue offset and C11 = 71-82
T4 peptide: EVPKGDRTAGSP

T5: peptide C8 of the ETB-R Pep-scan membrane (human)
T5 construct: Residues are inferred as for C5, from the one-residue offset and C11 = 71-82
T5 peptide: PAEVPKGDRTAG

T6: peptide C7 of the ETB-R Pep-scan membrane (human)
T6 construct: Residues are inferred as for C5, from the one-residue offset and C11 = 71-82
T6 peptide: APAEVPKGDRTA

T7: peptide C6 of the ETB-R Pep-scan membrane (human)
T7 construct: Residues are inferred as for C5, from the one-residue offset and C11 = 71-82
T7 peptide: LAPAEVPKGDRT

B1: Rendomab-B41 (antibody, IgG1, V domains shown)
VH: QVQLQQPGAELVKPGASVKLSCKASGYTFTSYWMHWVKQRPGRGLEWIGRIDPDSGGTKYNEKFKSKATLTVDKPSNTANMQLSSLTSEDSAVYYCVREGWDAWFVYWGQGTLLTVSA
VL: DVLMTQTPLSLPVSLGDQASISCRSSQSIVHSNGNTYLEWYLQKPGQSPKLLIYKVFNRFSGVPDRFSGSGSGTDFTLKISRVEAEDLGVYYCFQGSHVPLTFGAGTKLELKR
notes: Murine monoclonal IgG1/kappa purified from ascites; also called hybridoma CNCM I-5104
B2: Rendomab-B49 (antibody, IgG1, V domains shown)
VH: QVQLQQPGAALVKPGASVKLSCKASGYTFISYWMLWVKQRPGRGLEWIGRIDPDSGGTKYNEKFKSKATLTVDKSSSTAYMQLSSLTSEDSAVYYCAREGDYAWFAYWGQGTLVPVSA
VL: DVLMTQTPLSLPVSLGDQASISCRSSQSIVHSNGNTYLEWYLQKPGQSPKLLIYKVSNRFSGVPDRFSGSGSGTDFTLKISRVEAEDLGVYYCFQGSHVPWTFGGGTKLEIK
notes: Murine monoclonal IgG1/kappa purified from ascites; also called hybridoma CNCM I-5084
B3: Rendomab-B36 (antibody, IgG3, V domains shown)
VH: QVQLQQPGAELVKPGASVKLSCKASGYTFTSYWIHWVNQRPGRGLEWIGRIDPNSGGTKYNEKFKSKATLTVDKTSSTAYMQFSSLTSEDSAVYYCAREGEFAWFAYWGQGTLVTVSA
VL: B1 VL with S28N, N35Y, F57S, A105S, L111I
notes: Murine monoclonal IgG3/kappa purified from ascites; also called hybridoma CNCM I-5103

Key:
[1] = target: T1, human endothelin receptor sub-type B; assay: flow cytometry on CHO-ETBR cells pre-incubated 2 h at 37° C. with 300 nM endothelin 1 (receptor internalised)
[2] = target: T1, human endothelin receptor sub-type B; assay: flow cytometry on CHO-ETBR cells; apparent KD = concentration giving 50% of plateau MFI
[3] = target: T2, peptide C5 of the ETB-R Pep-scan …; assay: Pep-scan peptide membrane, 1 µg/ml antibody, chemiluminescent detection
[4] = target: T3, peptide C9 of the ETB-R Pep-scan …; assay: as above
[5] = target: T4, peptide C10 of the ETB-R Pep-scan …; assay: as above
[6] = target: T5, peptide C8 of the ETB-R Pep-scan …; assay: as above
[7] = target: T6, peptide C7 of the ETB-R Pep-scan …; assay: as above
[8] = target: T7, peptide C6 of the ETB-R Pep-scan …; assay: as above

Row | drop of binding after pre-incubation of the cells with 300 nM endothelin 1 [1] [%] | Kd [2] [nM] | binding result [3] | binding result [4] | binding result [5] | binding result [6] | binding result [7] | binding result [8] | Binder
1 | > 50 | ~1 | – | – | – | – | – | – | B1
2 | – | – | binds | binds | binds | binds | binds | binds | B2
3 | > 50 | ~1 | – | – | – | – | – | – | B3
